Test results taken from patent US20060270832A1.

Biological target: human noradrenaline transporter (hNET) (human), P23975
Test: cell-based or functional assay

human noradrenaline transporter (hNET) (human), P23975, sequence (P23975 whole entry): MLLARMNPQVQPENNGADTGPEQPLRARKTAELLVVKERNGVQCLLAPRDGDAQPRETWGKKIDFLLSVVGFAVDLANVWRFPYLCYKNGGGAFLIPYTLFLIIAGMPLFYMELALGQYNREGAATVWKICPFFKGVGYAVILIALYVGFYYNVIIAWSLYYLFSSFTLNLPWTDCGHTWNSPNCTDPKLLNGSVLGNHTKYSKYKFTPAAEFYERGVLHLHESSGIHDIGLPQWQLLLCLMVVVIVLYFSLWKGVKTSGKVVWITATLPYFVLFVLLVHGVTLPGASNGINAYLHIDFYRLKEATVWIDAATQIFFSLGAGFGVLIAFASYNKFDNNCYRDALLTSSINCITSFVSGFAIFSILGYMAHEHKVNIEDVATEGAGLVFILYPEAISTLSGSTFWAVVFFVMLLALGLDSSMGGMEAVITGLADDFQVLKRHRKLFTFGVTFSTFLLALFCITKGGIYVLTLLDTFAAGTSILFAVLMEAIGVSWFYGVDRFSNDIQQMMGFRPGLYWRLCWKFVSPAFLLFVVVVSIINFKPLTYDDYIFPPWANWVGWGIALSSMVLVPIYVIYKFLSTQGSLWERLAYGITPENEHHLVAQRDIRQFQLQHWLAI

Binder | Av IC50, inhibition of NA uptake via hNET (log M (unit not given))
WKDLCCGYKLCHPC (modifications not checked) [SEQ ID NO. 85] | -7.05
GYKLGCCGYKLCC (modifications not checked) [SEQ ID NO. 99] | -6.99
